Laboratory results as given in patent US20050154189A1 (MAXYGEN, published 2005).
Residue numbers refer to the chain shown, from its start.

B1: Round 2 CD28D10-4 (ligand)
chain: SGITPKSVTKRVKETVMLSCDYNTSTEELTSLRIYWQKDSKMVLAILPGKVQVWPEYKNRTITDMNDNPRIVILALRLSDKGTYTCVVQKNENGSFRREHLTSVTLSIRADFPVPSITDIGHPAPNVKRIRCSASGGFPEPRLAWMEDGEELNAVNTTVDQDLDTELYSVSSELDFNVTNNHSIVCLIKYGELSVSQIFPWSKPKQEPPIDQLPFWVIIPVSGALVLTAVVLYCLACRHVARWKRTRRNEETVGTERLSPIYLGSAQSSG
B2: Round 2 CD28BP-17 (ligand)
chain: SGITPKSVTKRVKETVMLSCDYSTSTEELTSLRIYWQKDSKMVLAILPGKVQVWPEYKNRTFPDIINNLSLMILALRLSDKGTYTCVVQKNENGSFRREHLTSVTLSIRADFPVPSITDIGHPAPNVKRIRCSASGDFPEPRLAWMEDGEELNAVNTTVDQDLDTELYSVSSELDFNVTNNHSIVCLIKYGELSVSQIFPWSKPKQEPPIDQLPFWVIIPVSGALVLTVVVLYCLACRHVARWKRTRRNEETVGTERLSPIYLGSAQSSG
B3: Round 2 CD28F3-5 (ligand)
chain: B1 chain with K81S
B4: Round 2 CD28BP-11 (ligand)
chain: B1 chain with T24A
B5: Round 2 CD28A8-6 (ligand)
chain: B1 chain with L18P, N23S, K81S
B6: Round 2 CD28G1-5 (ligand)
chain: B2 chain with P115S, D137G, V229A
B7: Round 2 CD28BP-8 (ligand)
chain: ITPKSVTKRVKETVMLSCDYNTSTEELTSLRIYWQKDSKMVLAILPGKVQVWPEYKNRTITDMNDNPRIVILALRLSDSGTYTCVIQKPVLKGAYKLEHLASVRLMIRADFPVPSITDIGHPAPNVKRIRCSASGGFPEPRLAWMEDGEELNAVNTTVDQDLDTELYSVSSELDSNVTNNHSIVCLIKYGELSVSQIFPWSKPKQEPPIDQLPFWVIIPVSGALVLTAVVLYCLACRHVARWKRTRRNEETVGTERLSPIYLGSAQSSG
notes: also called clone CD28BP-8
B8: Round 2 CD28C7-3 (ligand)
chain: B7 chain with N21S, V90D, A101T, G136D, S175F
B9: Round 2 CD28C6-1 (ligand)
chain: ITPKSVTKRVKETVMLSCDYSTSTEELTSLRIYWQKDSKMVLAILPGKVQVWPEYKNRTITDMNDNPRIVILALRLSDSGTYTCVIQKPVLKGAYKLEHLASVRLMIRADFPVPTINDLGNPSPNIRRLICSTSGGFPRPHLYWLENGEELNATNTTVSQDPGTELYMISSELDFNVTNNHSIVCLIKYGELSVSQIFPWSKPKQEPPIDQLPFWVIIPVSGALVLTAVVLYCLACRHGARWKRTRRNEETVGTERLSPIYLGSAQSSG
B10: Round 2 CD28E10-6 (ligand)
chain: B9 chain with S21N, V158L, G163E, G239V
B11: Round 2 CD28E5-2 (ligand)
chain: B9 chain with S21N, V90D, V158L, G163E, E165K, H181R, G239V
B12: Round 2 CD28D2-9 (ligand)
chain: B9 chain with S21N, A101T, V158L, G163E, G239V
B13: Round 2 CD28G2-8 (ligand)
chain: B9 chain with S21N, T115S, G239V
B14: Round 2 CD28H11-3 (ligand)
chain: B9 chain with S21N, V158L, G163E, E165K, V229A, G239V
B15: Round 2 CD28F3-6 (ligand)
chain: B9 chain with V90D, A101T, V158L, G163E, E165K, G239V
B16: Round 2 CD28C11-5 (ligand)
chain: B9 chain with S21N, A101T, V184A, G239V
B17: Round 2 CD28E9-6 (ligand)
chain: B9 chain with S21N, S79K, V90D, G239V
B18: Round 2 CD28F8-4 (ligand)
chain: B9 chain with V158L, G163E, E165K, G239V
B19: Round 2 CD28E2-4 (ligand)
chain: B9 chain with S79K, G239V
B20: Round 2 CD28F7-2 (ligand)
chain: ITPKSVTKRVKETVMLSCDYSTSTEELTSLRIYWQKDSKMVLAILPGKVQVWPEYKNRTITDMNDNPRIVILALRLSDSGTYTCVIQKPVLKGAYKLEHLASVRLMIRADFPVPTINDLGNPSPNIRRLICSTSGGFPEPRLAWMEDGEELNAVNTTVDQDLDTELYSVSSELDFNVTNNHSIVCLIKYGELSVSQIFPWSKPKQEPPIDQLPFWVIIPVSGALVLTAVVLYCLACRHVARWKRTRRNEETVGTERLSPIYLGSAQSSG
B21: Round 2 CD28D8-9 (ligand)
chain: B9 chain with A101T, G239V
B22: Round 2 CD28C8-6 (ligand)
chain: B9 chain with S21N, D174G, G239V
B23: Round 2 CD28C2-4 (ligand)
chain: GISQVTKSVKEMAALSCDYNISIDELARMRIYWQKDQQMVLSIISGQVEVWPEYKNRTITDMNDNPRIVILALRLSDSGTYTCVIQKPVLKGAYKPEHLASVRLMIRADFPVPTINDLGNPSPNIRRLICSTSGGFPRPHLYWLENGEELNATNTTLSQDPETKLYMISSELDFNMTSNHSFLCLVKYGDLTVSQTFYWQESKPTPSANQHLTWTIIIPVSAFGISVIIAVILTCLTCRNAAIRRQRRENEVEMQSCSQSP
B24: Round 2 CD28B6-6 (ligand)
chain: ITPKSVTKRVKETVMLSCDYSTSTEELTSLRIYWQKDSKMVLAILPGKVQVWPEYKNRTITDMNDNPRIVILALRLSDKGTYTCVIQKPVLKGAYKLEHLTSVTLSIRADFPVPSITDIGHPAPNVKRIRCSASGGFPEPRLAWMEDGEELNAVNTTVDQDLDTELYSVSSELDFNATNNHSIVCLIKYGELSVSQIFPWSKPKQEPPIDQLPFWVIVPVSGALVLTAVVLYCLACRHVAR
B25: Round 2 CD28BP-14 (ligand)
chain: GISQVTKSVKEMAALSCDYNISIDELARMRIYWQKDQQMVLSIISGQVEVWPEYKNRTITDMNDNPRIVILALRLSDSGTYTCVIQKPVLKGAYKLEHLASVRLMIRADFPVPTINDLGNPSPNIRRLICSTSGGFPRPHLYWLENGEELNATNTTVSQDPGTELYMISSELDFNVTNNHSIVCLIKYGELSVSQIFPWSKPKQEPPIDQLPFWVIIPVSGALVLTAVVLYCLACRHVARWKRTRRNEETVGTERLSPIYLGSAQSSG
B26: Round 1 CD28BP-71 (ligand)
chain: ITPKSVTKRVKETVMLSCDYNTSTEELTSLRIYWQKDSKMVLAILPGKVQVWPEYKNRTITDMNDNPRIVILALRLSDSGTYTCVIQKPVLKGAYKLEHLASVRLMIRADFPVPTINDLGNPSPNIRRLICSTSGGFPRPHLYWLENGEELNATNTTLSQDPETKLYMISSELDFNMTSNHSFLCLVKYGDLTVSQTFYWQESKPTPSANQHLTWTIIIPVSAFGISVIIAVILTCLTCRNAAIRRQRRENEVEMQSCSQSP
notes: also called R1clone71; Clone 71
B27: Round 2 CD28F3-1 (ligand)
chain: B26 chain with V90D, A101T, E149K
B28: Round 2 CD28E2-5* (ligand)
chain: B26 chain with I1T, L76P
B29: Round 2 CD28D5-6 (ligand)
chain: B26 chain with N21S, A101T, T197S
B30: Round 2 CD28B6-3 (ligand)
chain: B26 chain with V90D, A101T, E254K
B31: Round 2 CD28E8-6 (ligand)
chain: B26 chain with A101T, L158V, M177T
B32: Round 2 CD28B4-3 (ligand)
chain: B26 chain with A101T

biological target: T1, Soluble CD28-Ig (human, UniProt P10747 19-152, biotin-conjugated (NHS-biotin) in the labelled-ligand FACS assays); test: two-colour FACS profile on transfected cells; score of preference for CD28-Ig over CTLA-4-Ig vs WT hB7-1
T1 construct: extracellular domain; Bought from R&D Systems; also called sCD28-Ig; CD28-Ig Fc; not shown: Fc portion of human IgG1

Row | Binding Score | Binder
1 | 0 | B1
2 | 2 | B2
3 | 0 | B3
4 | 2 | B4
5 | 1 | B5
6 | 1 | B6
7 | 2 | B7
8 | 1 | B8
9 | 1 | B9
10 | 1 | B10
11 | 0 | B11
12 | 1 | B12
13 | 1 | B13
14 | 1 | B14
15 | 0 | B15
16 | 2 | B16

Row | Binding Score | Binder
17 | 0 | B17
18 | 1 | B18
19 | 1 | B19
20 | 2 | B20
21 | 1 | B21
22 | 2 | B22
23 | 1 | B23
24 | 1 | B24
25 | 2 | B25
26 | 1 | B26
27 | 0 | B27
28 | 0 | B28
29 | 0 | B29
30 | 1 | B30
31 | 0 | B31
32 | 1 | B32
